{
  "source": "patent US20240150797A1",
  "about": "“BIOCATALYTICAL PRODUCTION OF DIHYDROCHALCONES” (Symrise AG, priority 2021, published 2024)",
  "molecules": {"B1": {"name": "CHI1: Chalcone isomerase from Fusibacter sp. 3D3, access no. WP_069876268.1 (protein)", "chain": "SYVPEFKPMRSFILNNVRSDNDRPKAFRWLYKQHVPESISQFRPYCTKYATYHALPLVEGAEQFGTYNWIMTEHYWNFNIFQDKGLGHSRGLAFTEAYPHDFMEITCQPPSNTLRQSGWQGSAEGYHPIVFCFAPIFWENDFKGSERLTDDGANFRWLFFLSYPEGVTVEEGDQWFLETFAKEAAEMPEVIRFLSSRVMDSPRINPFDRIVELWFDDSEAWHNAMVKNGHLFTKPAWSKVDQFPFFEAYKDITGVFIMDRPDSDHLAQWQGYITTR", "modifications": "Fusibacter sp. 3D3"}, "B2": {"name": "CHI4: Chalcone isomerase from Acetoanaerobium noterae, access no. WP_079589066.1 (protein, listed as Acetoanaerobium noterae)", "chain": "ADFEFNPMRSLIYVDVVKEDYRHMLKHWLYRHHIPDSISQFGPYVTKYAFYPALPTPPEGDRFGTIRMQLTEHYWTVNPFTSNFKNKAFTEFFPIDILKWQGNIPDDSKVAALEGEEVVKLEGDDARASGGDNGCPPFIFAFVPICWEEDFKGSQRTVEDGPNYRWQFVMKYPEGVTMKEGDKWFYEEMIPKFKDMPDVLRILSSKIIQQVNGCPYHRVVEMWFNCPSAWYRSAVEKAKEIKKPSWAKYDVFPYLKPKFEIASLFLTDIAESDNYSQYRGYITMR"}, "B3": {"name": "CHI12: Chalcone isomerase from Holophaga foetida, access no. WP_005036737.1 (protein, listed as Holophaga foetida)", "chain": "TVEFCPMRSLIYVGLSKEKYRHLLQNWLYRIHIPDSISQFGPYVTKYAFYNALPVPPEGERFGTIKMQLTEHYWQCNPFQQAVAVKTFKEVFPIDVLRWQGNMPDESDGAVELEGDEARSAKGGQGAKPFIFAFVPLWWEEDIKGKMRTIADGPNYRWQFVMKYPEGVSQEQGDKWFLEEVAPAFAAMPEVNRILSSKIIQNVNGCSFNRVVEMWFDGPDEWYAAAVTKAAALPKPTWAKQDKFPFLASDYEFASVFLTDYATSDNLSQYRGYITLR"}, "B4": {"name": "CHI8: Chalcone isomerase from Roseburia sp., access no. SCJ10619.1 (protein, listed as Roseburia sp.)", "chain": "RSLIYVDVAKEQYRVKLNHWLYAVHVPESISKFRPYVSQYAFYNALPVPPLGEQFGTVRMQLTEHYWQVNPMDVSMAVNVFTETFPTEVLIWQGNMPENAIALNYEGDEARSAKVENCNPFVFAFLPISWEEDLKGAGRTMADGPNYRWNFALHYPDGVSVETGDQWFYEKFVPAFLEIPEATRMVTSKIIKEINDCPMDRVVEIWFEGPDQWSAAMEKAKSIEPPEWAQEETFPYLKPYQNIMGVFVADNISSDNLNNHRGYITMR"}, "B5": {"name": "CHI5: Chalcone isomerase from Parasporobacterium paucivorans, access no. WP_073993359.1 (protein)", "chain": "GPEFQPMRSLIYVDCVKEEYRHRLQNWLYHYHVPDSISQFAPYVSKYCFYNALPTPPEGERFGTIRQQLTEHYWMVNPFTEHFKNKALTEYFPCDVLKWQGNIPDDDLEVNFEGDEARSKGGHNGCAPFIFAFLPLCWEEDFKGKERTIENGPNYRWNFVMKYPEGTSMEEGDKWFYEKMIPAFQEMPEVTRILTSKVIQSINGCAFHRVVEMWFDGPNAWYQAAVVKAKNIEKPSWASVDAFPYLQATFEFDGIFLTDYAASDNMSQYRGYLAMR", "modifications": "Parasporobacterium paucivorans"}, "B6": {"name": "CHIera Mut9: Chalcone isomerase variant 9 from Eubacterium ramulus, genetically engineered (protein, listed as Eubacterium ramulus)", "chain": "MADFKFEPMRSLIYVDCVSEDYRPKLQRWIYKVHIPDSISQFEPYVTKYAFYPSFPIPPQGDRFGYARMQLTEHHWLVSMLDPRLEIKAIAETFPMDVLVWQGQIPAAAHTDAQIDSDGDAGNAARKSNNAEGNPFIFAFLPMWWEKDLKGKGRTIEDGANYRFNMTIGFPEGVDKAEGEKWLFEKVVPILQAAPECTRVLASAVKKDINGCVMDWVLEIWFENQSGWYKVMVDDMKALEKPSWAQQDAFPFLKPYHNVCSAAVADYTPSNNLANYRGYITMR"}, "B7": {"name": "CHIera Mut10: Chalcone isomerase variant 10 from Eubacterium ramulus, genetically engineered (protein, listed as Eubacterium ramulus)", "chain": "B6 chain with M80I, N123D"}, "B8": {"name": "CHIera Mut11: Chalcone isomerase variant 11 from Eubacterium ramulus, genetically engineered (protein, listed as Eubacterium ramulus)", "chain": "B6 chain with M80P, N123D"}, "B9": {"name": "CHIera Mut12: Chalcone isomerase variant 12 from Eubacterium ramulus, genetically engineered (protein, listed as Eubacterium ramulus)", "chain": "B6 chain with Q41K, M80P, K88N, G122A, N123R"}, "B10": {"name": "CHIera Mut14: Chalcone isomerase variant 14 from Eubacterium ramulus, genetically engineered (protein, listed as Eubacterium ramulus)", "chain": "B6 chain with Q41K, M80E, K88N, G122H, N123R"}, "B11": {"name": "CHI6: Chalcone isomerase from Lachnoclostridium sp., access no. HCD45524.1 (protein, listed as Lachnoclostridium sp.)", "chain": "GTEFDPMRSFIYVDVIKEEYRHKLQHWLYFHHIPESISQFEPYCTKYAFYNALPVPEGGERFGTARMQITEHSWLVNIMDPALKVKAFQEYMPIEALKWQGTVPETAGDVLMSGDDARCTGGNNGCMPFVFAFCPMWWEEDVKGAGRTLTEGANYRWNFALTYPEGISKEEGDKWLFEEVFPYFEANNCCTRILTSKVRQEINGCPMYRVVEMWFTGPTAWHHLAVETADKIKSPSWAKDGDVFPYLKSGFEIRGAFVTDYPTCDAYSQYRGYIPRR"}, "B12": {"name": "CHI2: Chalcone isomerase from Tepidanaerobacter acetatoxydans, access no. WP_013779275.1 (protein)", "chain": "DTEFKPMRSLIYVGVAKEEYRHKLKNWLYRYHIPDSISQFAPYVTKYAFYNALPVPPEGERFGAYNMQLTEHYWLINPMNPQLKIKAFTEFFPVDVLKWQGNIPDDADADSVNIEGDAARSSGGDNGMPPFIFAFIPFWWEEDFKGAGRTVEDGPNYRWQFLIQYPNGISLEEGDQWFYKKLVPAFKEMPEVNRFLTSRVIRDVNDCQFHRVIEMWFDGPEEWYRAAVEKGKSIERPHWATAEEFPYLKPKFQIASLFLTDIADSDNYSQYRGYITMR", "modifications": "Tepidanaerobacter acetatoxydans"}},
  "note": "Substitutions are numbered along the chain they refer to.",
  "data": [
    {"test": "Specific activity of purified CHI, absorbance decrease at 384 nm, naringenin chalcone", "assay_type": "biochemical", "conditions": "purified CHI in 50 mM PBS, 100 μM substrate, 25° C.", "method": "(§1) E. coli BL21 (DE3) cells containing one of the pET28b plasmids from Table 2 or Table 3 were used to inoculate 1 L LB medium at OD of 0.1. Cells were incubated at 37° C., 250 rpm until the OD reached 0.4-0.6 and induced by supplementing with 0.1 mM IPTG. After protein expression at 28° C., 250 rpm for 16 h, the cells were harvested by centrifugation at 4,000×g for 15 min. The harvested cells were lysed with 0.5 mg/mL lysozyme (Sigma-Aldrich), 0.4 U/mL Benzonase (Sigma-Aldrich) and BugBuster (Merck) at room temperature for 0.5 h to obtain a crude cell extract. The crude extract was centrifuged at 10,000×g for 30 min to remove the pellet. Recombinant proteins were purified by Ni-affinity chromatography (GE Healthcare). The supernatant of the crude extract was loaded on the column with 20 mM imidazole. The column was washed by 5 column volumes of 30 mM imidazole with 20 mM PBS (pH 7.4) and 500 mM NaCl. The target proteins were eluted by 150 mM imidazole with 20 mM PBS (pH 7.4) and 500 mM NaCl. Buffer exchange with 50 mM PBS (pH 7.5) was achieved by ultrafiltration with Amicon Ultra-15 (Merck). The activity of the respective purified enzyme was determined by measuring the absorbance decrease at 384 nm in the reaction mix (CHI in 50 mM PBS with 100 μM of either naringenin chalcone, hesperetin chalcone, eriodictyol chalcone, homoeriodictyol chalcone or 4-O-methyl butein at 25° C.).", "values": [
      {"molecule": "B1", "Specific activity, Naringenin chalcone": 21.3},
      {"molecule": "B2", "Specific activity, Naringenin chalcone": 46.6},
      {"molecule": "B3", "Specific activity, Naringenin chalcone": 32.4},
      {"molecule": "B4", "Specific activity, Naringenin chalcone": 73.5},
      {"molecule": "B5", "Specific activity, Naringenin chalcone": 59.9},
      {"molecule": "B6", "Specific activity, Naringenin chalcone": 67.5},
      {"molecule": "B7", "Specific activity, Naringenin chalcone": 26.4},
      {"molecule": "B8", "Specific activity, Naringenin chalcone": 76.8},
      {"molecule": "B9", "Specific activity, Naringenin chalcone": 11.0},
      {"molecule": "B10", "Specific activity, Naringenin chalcone": 29.5},
      {"molecule": "B11", "Specific activity, Naringenin chalcone": 16.8},
      {"molecule": "B12", "Specific activity, Naringenin chalcone": 54.8}
    ]},
    {"test": "Specific activity of purified CHI, absorbance decrease at 384 nm, eriodictyol chalcone", "assay_type": "biochemical", "conditions": "purified CHI in 50 mM PBS, 100 μM substrate, 25° C.", "method": "as §1", "values": [
      {"molecule": "B1", "Specific activity, Eriodictyol chalcone": 18.2},
      {"molecule": "B2", "Specific activity, Eriodictyol chalcone": 34.4},
      {"molecule": "B3", "Specific activity, Eriodictyol chalcone": 28.2},
      {"molecule": "B4", "Specific activity, Eriodictyol chalcone": 33.9},
      {"molecule": "B5", "Specific activity, Eriodictyol chalcone": 82.7},
      {"molecule": "B6", "Specific activity, Eriodictyol chalcone": 43.7},
      {"molecule": "B7", "Specific activity, Eriodictyol chalcone": 60.0},
      {"molecule": "B8", "Specific activity, Eriodictyol chalcone": 91.1},
      {"molecule": "B9", "Specific activity, Eriodictyol chalcone": 19.9},
      {"molecule": "B10", "Specific activity, Eriodictyol chalcone": 27.2},
      {"molecule": "B11", "Specific activity, Eriodictyol chalcone": 17.0},
      {"molecule": "B12", "Specific activity, Eriodictyol chalcone": 25.4}
    ]},
    {"test": "Specific activity of purified CHI, absorbance decrease at 384 nm, homoeriodictyol chalcone", "assay_type": "biochemical", "conditions": "purified CHI in 50 mM PBS, 100 μM substrate, 25° C.", "method": "as §1", "values": [
      {"molecule": "B1", "Specific activity, Homoeriodctiol chalcone": 11.3},
      {"molecule": "B2", "Specific activity, Homoeriodctiol chalcone": 15.2},
      {"molecule": "B4", "Specific activity, Homoeriodctiol chalcone": 22.8},
      {"molecule": "B5", "Specific activity, Homoeriodctiol chalcone": 19.7},
      {"molecule": "B6", "Specific activity, Homoeriodctiol chalcone": 14.4},
      {"molecule": "B7", "Specific activity, Homoeriodctiol chalcone": 17.9},
      {"molecule": "B8", "Specific activity, Homoeriodctiol chalcone": 30.8},
      {"molecule": "B9", "Specific activity, Homoeriodctiol chalcone": 9.8},
      {"molecule": "B10", "Specific activity, Homoeriodctiol chalcone": 15.6},
      {"molecule": "B11", "Specific activity, Homoeriodctiol chalcone": 8.1},
      {"molecule": "B12", "Specific activity, Homoeriodctiol chalcone": 19.9}
    ]},
    {"test": "Specific activity of purified CHI, absorbance decrease at 384 nm, hesperetin chalcone", "assay_type": "biochemical", "conditions": "purified CHI in 50 mM PBS, 100 μM substrate, 25° C.", "method": "as §1", "values": [
      {"molecule": "B1", "Specific activity, Hesperetin chalcone": 16.7},
      {"molecule": "B2", "Specific activity, Hesperetin chalcone": 58.5},
      {"molecule": "B3", "Specific activity, Hesperetin chalcone": 36.5},
      {"molecule": "B4", "Specific activity, Hesperetin chalcone": 19.2},
      {"molecule": "B5", "Specific activity, Hesperetin chalcone": 84.5},
      {"molecule": "B6", "Specific activity, Hesperetin chalcone": 57.4},
      {"molecule": "B7", "Specific activity, Hesperetin chalcone": 96.4},
      {"molecule": "B8", "Specific activity, Hesperetin chalcone": 75.5},
      {"molecule": "B9", "Specific activity, Hesperetin chalcone": 24.9},
      {"molecule": "B10", "Specific activity, Hesperetin chalcone": 4.5},
      {"molecule": "B11", "Specific activity, Hesperetin chalcone": 3.3},
      {"molecule": "B12", "Specific activity, Hesperetin chalcone": 93.5}
    ]},
    {"test": "Specific activity of purified CHI, absorbance decrease at 384 nm, 4-O-methyl butein", "assay_type": "biochemical", "conditions": "purified CHI in 50 mM PBS, 100 μM substrate, 25° C.", "method": "as §1", "values": [
      {"molecule": "B1", "Specific activity, 4-O-methyl butein": 0.2},
      {"molecule": "B2", "Specific activity, 4-O-methyl butein": 0.4},
      {"molecule": "B3", "Specific activity, 4-O-methyl butein": 0.2},
      {"molecule": "B4", "Specific activity, 4-O-methyl butein": 1.2},
      {"molecule": "B5", "Specific activity, 4-O-methyl butein": 0.4},
      {"molecule": "B11", "Specific activity, 4-O-methyl butein": 0.1},
      {"molecule": "B12", "Specific activity, 4-O-methyl butein": 0.8}
    ]}
  ]
}
